Reference: doi:10.1101/2020.04.26.062372

What was measured:
[1] = biological target: GLP-1R-SmBiT (glucagon-like peptide-1 receptor tagged at the C-terminus with SmBiT) (UniProt P43220); experiment: split reporter
[2] = biological target: GIPR-SmBiT (glucose-dependent insulinotropic polypeptide receptor tagged at the C-terminus with SmBiT) (UniProt P48546); experiment: split reporter
UniProt P48546, sequence (P48546 22-466): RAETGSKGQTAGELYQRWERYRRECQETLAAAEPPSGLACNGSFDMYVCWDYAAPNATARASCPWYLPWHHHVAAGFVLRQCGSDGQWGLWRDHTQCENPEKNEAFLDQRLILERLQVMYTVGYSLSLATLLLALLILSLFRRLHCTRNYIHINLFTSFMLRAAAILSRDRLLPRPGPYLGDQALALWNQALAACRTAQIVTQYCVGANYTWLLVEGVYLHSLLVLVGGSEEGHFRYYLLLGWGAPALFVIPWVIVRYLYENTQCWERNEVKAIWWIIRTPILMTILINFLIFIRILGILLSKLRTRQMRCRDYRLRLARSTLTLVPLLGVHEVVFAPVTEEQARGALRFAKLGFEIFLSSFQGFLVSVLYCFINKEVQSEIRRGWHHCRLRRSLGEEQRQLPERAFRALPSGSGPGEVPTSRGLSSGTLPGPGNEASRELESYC

UniProt P43220, sequence (P43220 24-463): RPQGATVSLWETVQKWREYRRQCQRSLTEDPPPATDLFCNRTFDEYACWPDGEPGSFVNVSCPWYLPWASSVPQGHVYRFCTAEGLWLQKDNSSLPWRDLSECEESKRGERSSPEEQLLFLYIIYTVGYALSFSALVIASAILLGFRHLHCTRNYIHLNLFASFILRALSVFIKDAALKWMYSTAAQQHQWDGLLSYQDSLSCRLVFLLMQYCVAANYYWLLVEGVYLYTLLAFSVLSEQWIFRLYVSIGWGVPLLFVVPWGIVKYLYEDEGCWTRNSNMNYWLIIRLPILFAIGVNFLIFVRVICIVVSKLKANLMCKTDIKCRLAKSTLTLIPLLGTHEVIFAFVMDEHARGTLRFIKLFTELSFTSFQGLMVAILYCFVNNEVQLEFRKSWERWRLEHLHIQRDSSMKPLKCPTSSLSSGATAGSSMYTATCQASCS

LgBiT-mini-Gs showed a t1/2 of ligand-induced recruitment [1] of 1.5 min and a t1/2 of ligand-induced recruitment [2] of 7.1 min.
